# Measurements taken from patent US9931373B2, “Method of reducing cancer cell proliferation by administering recombinant alpha-fetoprotein” (priority 2005, dated 2018).
# B1: rhAFP: recombinant human alpha-fetoprotein secreted by yeast Saccharomyces cerevisiae YBS723/pKX, glycosylated, mature human AFP sequence SEQ ID NO:2 (protein, listed as Homo sapiens)
# chain: TLHRNEYGIASILDSYQCTAEISLADLATIFFAQFVQEATYKEVSKMVKDALTAIEKPTGDEQSSGCLENQLPAFLEELCHEKEILEKYGHSDCCSQSEEGRHNCFLAHKKPTPASIPLFQVPEPVTSCEAYEEDRETFMNKFIYEIARRHPFLYAPTILLWAARYDKIIPSCCKAENAVECFQTKAATVTKELRESSLLNQHACAVMKNFGTRTFQAITVTKLSQKFTKVNFTEIQKLVLDVAHVHEHCCRGDVLDCLQDGEKIMSYICSQQDTLSNKITECCKLTTLERGQCIIHAENDEKPEGLSPNLNRFLGDRDFNQFSSGEKNIFLASFVHEYSRRHPQLAVSVILRVAKGYQELLEKCFQTENPLECQDKGEEELQKYIQESQALAKRSCGLFQKLGEYYLQNAFLVAYTKKAPQLTSSELMAITRKMAATAATCCQLSEDKLLACGEGAADIIIGHLCIRHEMTPVNPGVGQCCTSSYANRRPCFSSLVVDETYVPPAFSDDKFIFHKDLCQAQGVALQTMKQEFLINLVKQKPQITEEQLEAVIADFSGLLEKCCQGQEQEVCFAEEGQKLISKTRAALGV
# modifications: yeast glycosylation
# Columns and labels:
# [1] = system: cells of B-cellular lymphoma Raji; experiment: Suppression of growth of Raji cells in vitro, [H3]-thymidine incorporation; assay type: cell-based, human; settings: 12 hours with AFP, dose-dependent, FIG. 5
# Description: The functional activity of rAFP and the modified forms thereof were determined according to its capability of suppressing the growth of cells of B-cellular lymphoma Raji in the culture in vitro, as earlier described (Semenkova, L. 1997, Tumor Biol. 18, 261-274; Dudich E. I., et al., 1998, Tumor Biol. 198, 30-40). Preliminarily washed by a fresh medium, Raji cells were placed into each cell of a 96-alverolar plate according to 5×10^3 in 0.1 ml of a medium RPMI-1640 in the presence of a 10% fetal calf serum, then different doses of AFP were added for 12 hours. Proliferation of the cells was measured by a standard method by the introduction of [H^3]-thymidine during the last 4 hours of culturing. For comparison, the dose-dependent reactivity was studies for two samples of AFP of embryonal origin embrAFP and yeast rAFP (FIG. 5). […] Similarly, in order to determine the activity to preparations on the base of AFP in vitro, any other lines of cancer cells may be used that are sensitive to the suppressive action of AFP, such as human hepatocarcinoma HepG2, breast cancer MCF-7, prostate cancer LnCap, myeloblastoma U-937 and others (Semenkova, L. 1997, Tumor Biol. 18, 261-274; Dudich E. I., et al., 1998, Tumor Biol. 198, 30-40).
# [2] = system: Human mesenchymal stromal/stem adipose tissue cells (ATSC); experiment: Proliferation of adipose tissue stem cells (ATSC), [H3]-thymidine incorporation; assay type: cell-based; settings: for Cell proliferation (cpm × 103): 24 h
# Description: Human mesenchymal stromal/stem adipose tissue cells (ATSC) were isolated either from liposuction aspirates or from products of the fat deposit removed during the cosmetic surgery. The tissue was mechanically split to the fragments of several cubic millimeters. A suspension of tissue was mixed with type I Collagenase (200 U/ml) and Dispase (30 U/ml) (Sigma) in solution of 50% DMEM (Sigma, D-5523), 50% F12 (Sigma, N-6760), 1% BSA (Sigma), /100 U/ml penicillin and 100 U/ml ampicilline in 1:1 v/v and incubated for 1 hr at 37° C. to with mixing, following by filtering through 40 μm membrane (BD Falcon). The suspension was centrifuged 5 min at 200 g, upper layer was removed, and pellet consisting of separate non-adipose cells was treated by erythrocyte lysis buffer (154 mM NH4Cl, 10 mM KHCO3, 0.1 mM EDTA) during 5 min at 37° C., following by 5 min centrifugation at 300 g. Cell pellet was resuspended in DMEM/10% FBS. Resulting cells were cultured in the same medium in plastic flasks in CO2 incubator (37° C., 5% CO2). When reaching confluence, the cells were passaged by treatment the cell monolayer with 0.25% trypsin/0.02% EDTA. For the purpose of long-time storage, the cells were frozen in the culture medium supplemented by 15-20% FBS and 10% DMSO. Adipose cells were cultivated in DMEM/F12 medium with the addition 10% FBS 0.1% ECGF on 60 mm Petri dishes at 37° C. and 5% CO2. For the passages 0.25% trypsin/0.02% EDTA. solution was used. For the purpose of long-time storage, the cells were frozen in the culture medium supplemented by 15-20% FBS and 10% DMSO. Adipose tissue stem cells (ATSC) were cultivated in DMEM/F12 medium with the addition 10% FBS 0.1% ECGF on 60 mm Petri dishes at 37° C. and 5% CO2. For the passages 0.25% trypsin/0.02% EDTA solution was used. For the purpose of long-time storage, the cells were frozen in the culture medium supplemented by 15-20% FBS and 10% DMSO.
# Human donor ATSC were isolated and cultivated as described above, the cells from 2-4 passage were taken in the study. ADSC (3×10^4) were plated in flat-bottom 96-well plates (Costar, USA) in complete medium with 10% FCS, after 18 h the medium was changed onto the medium with 5% human sera and cells were treated with increasing amounts of rhAFP (0-500 μg/ml) for 24 h. The direct effect of rhAFP on proliferation of ATSC was measured by [H^3]-thymidine incorporation. For the last 4 h 1 μCi of methyl-[H^3]-thymidine was added to the cultures.
# [3] = system: syngeneic leukemia cells P388; experiment: Syngeneic acute leukemia P388 in BDF1 mice, survival over 30 days; assay type: in vivo; settings: rhAFP 25.0 mg/kg
# Description: We have studied the effect of combined treatment with AFP+Dox of acute leukemia in mice BDF1 with transplanted intrapleurally syngeneic P388 leukemia cells. BDF-1 mice (84 male, 28 mice per treatment) were implanted with lethal dose of 12×10^6 syngeneic leukemia cells P388 in the pleural region. Animals were subjected to monotherapy with Dox and combined therapy with rhAFP/Dox upon simultaneous single injection of drugs in various doses. Animal survival was compared over 30 days.
# [4] = system: Human Umbilical Vein Endothelial Cells (HUVEC); experiment: Wound healing assay with HUVEC; assay type: cell-based; settings: serum-free medium, 50 μg/ml rhAFP, 18 hrs; HSA as control
# Description: HUVECs were plated onto the gelatin-coated 24-well plates, and grown for confluence. Than monolayers were wounded by scrapper, and cells were incubated in the serum-free medium with 0.1-0.5 mg/ml of rhAFP or HSA.
# To test ability of rhAFP to stimulate regeneration of damaged tissue we established classical wound healing assay with normal Human Umbilical Vein Endothelial Cells (HUVEC) obtained after surgical resection of human vein tissue. HUVEC cells were cultivated in DMEM/F12 medium with addition 10% FBS and 0.1% ECGF on the 60 mm Petri dishes at 37° C. at 5% CO2 atmosphere. HUVECs were plated on gelatin-coated 24-well plates, and grown for confluence, than monolayers were wounded and cells were incubated in serum-free medium with 50 μg/ml rhAFP or 50 μg/ml HSA, healing was observed after 18 hrs incubation. Images of wound healing were taken after staining with crystal violet.
molecule,measurement,setting,value
B1,"cytostatic activity, inhibition of growth of Raji cells",[1],expressed cytostatic activity
same,Maximum effect on proliferation of ATSC,"[2]; 300 μg/ml of rhAFP, compared to untreated control",50%
same,"Cell proliferation, change versus control","[2]; AFP 0.100 mg/ml, 2 passage",(+16%)
same,Cell proliferation (cpm × 103),"[2]; AFP 0.100 mg/ml, 2 passage, control 17.8 ± 6.4",20.7 ± 0.7 cpm × 103
same,"Cell proliferation, change versus control","[2]; AFP 0.100 mg/ml, 3 passage",(+7%)
same,Cell proliferation (cpm × 103),"[2]; AFP 0.100 mg/ml, 3 passage, control 16.5 ± 1.5",17.7 ± 5.3 cpm × 103
same,"Cell proliferation, change versus control","[2]; AFP 0.100 mg/ml, 4 passage",(+20%)
same,Cell proliferation (cpm × 103),"[2]; AFP 0.100 mg/ml, 4 passage, control 0.83 ± 0.1",1.0 ± 0.08 cpm × 103
same,"Cell proliferation, change versus control","[2]; AFP 0.300 mg/ml, 2 passage",(+44%)
same,Cell proliferation (cpm × 103),"[2]; AFP 0.300 mg/ml, 2 passage, control 17.8 ± 6.4",25.8 ± 4.1 cpm × 103
same,"Cell proliferation, change versus control","[2]; AFP 0.300 mg/ml, 3 passage",(+35%)
same,Cell proliferation (cpm × 103),"[2]; AFP 0.300 mg/ml, 3 passage, control 16.5 ± 1.5",22.4 ± 1.4 cpm × 103
same,"Cell proliferation, change versus control","[2]; AFP 0.300 mg/ml, 4 passage",(+50%)
same,Cell proliferation (cpm × 103),"[2]; AFP 0.300 mg/ml, 4 passage, control 0.83 ± 0.1",1.2 ± 0.24 cpm × 103
same,Survival more 30 days,[3],0
same,T/C %,[3],118%
same,"T (survival, days)",[3]; single injection,[15.7/21.8] 7.7 [6.4/ days
same,migration of HUVEC to the wounded area,[4],significantly activated the migration of HUVEC to the wounded area
